Data on 1 molecule can be found in PMC6687821, “Brain-targeted drug delivery by manipulating protein corona functions” (Nature Communications, 2019).

The target in this test is T1, mouse plasma ApoE (mouse (endogenous in BALB/c plasma), UniProt P08226 19-311).
T1 construct: apolipoprotein E, mouse, band of 36 kDa identified by nano-LC-MS/MS; also called apolipoprotein E; source: endogenous, BALB/c mouse plasma (in vitro) or blood of injected BALB/c mice (in vivo)
T1 sequence (looked up): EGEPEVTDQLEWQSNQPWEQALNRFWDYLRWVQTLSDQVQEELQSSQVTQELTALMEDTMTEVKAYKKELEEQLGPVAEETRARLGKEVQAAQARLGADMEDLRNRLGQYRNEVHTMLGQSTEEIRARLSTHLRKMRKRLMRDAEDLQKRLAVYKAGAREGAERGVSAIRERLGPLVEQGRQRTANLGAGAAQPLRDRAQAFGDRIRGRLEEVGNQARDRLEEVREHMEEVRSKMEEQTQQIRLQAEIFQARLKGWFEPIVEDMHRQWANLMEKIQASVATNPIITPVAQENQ
The experiment in a line: radioligand binding; SP-sLip (100 μL, 10 mg/mL) with mouse plasma (100 μL) at 37 °C for 1 h, then I-125 rhLRP1 (6 μCi, 0.5 μg) for 1 h at 37 °C; pellet at 19k RCF 30 min, three washes with cold PBS, gamma counter; plain sLip as control. To be noted: one partner purified.

B1: I-125 radiolabeled recombinant human LRP1 Cluster II Fc Chimera, Human IgG1 (Fc fusion, UniProt Q07954 852-1182, looked up)
chain: PQCQPGEFACANSRCIQERWKCDGDNDCLDNSDEAPALCHQHTCPSDRFKCENNRCIPNRWLCDGDNDCGNSEDESNATCSARTCPPNQFSCASGRCIPISWTCDLDDDCGDRSDESASCAYPTCFPLTQFTCNNGRCININWRCDNDNDCGDNSDEAGCSHSCSSTQFKCNSGRCIPEHWTCDGDNDCGDYSDETHANCTNQATRPPGGCHTDEFQCRLDGLCIPLRWRCDGDTDCMDSSDEKSCEGVTHVCDPSVKFGCKDSARCISKAWVCDGDNDCEDNSDEENCESLACRPPSHPCANNTSVCLPPDKLCDGNDDCGDGSDEGELC
modifications: I-125 radiolabel (residues not stated)
notes: Same bought protein as m6, radiolabeled; the labelling method is not described; also called I^125 radiolabeled rhLRP1; radiolabeled rhLRP1; source: bought: R&D system, then I-125 radiolabeled
As to B1, the “fold of rhLRP1 absorbed on SP-sLip over plain sLip, after preincubation with mouse plasma” value stood at 8.4 fold.
